Results taken from publication PMC9348755 (Science (New York, N.y.), 2022).

B1: VP12E7 mAb (antibody, V domains shown)
VH: QVQLVQSGGGVVQPGESLRLSCSGSGFTFNNYIMHWVRQAPGQGLDYVSGIGSDGRNTNYGDSVKGRFTISRDNSKDTLYLQMTSLRAEDTAFYYCVKGLDVLRFLDLSTPSGERLDAFDIWGQGTMVTVSS
VL: DIVMTQSPSFLSASVGDRVTITCRASQGISNYLAWYQQKPGKAPHLLIYAASTLQSGVPSRFSGSGSGTEFTLTISSLQPEDFATYYCQQLNSYPLFTFGPGTKVDIE
notes: also called Group 3 mAb; fusion peptide-specific mAb
B2: C77G12 mAb (antibody, V domains shown)
VH: EVQLVESGGGVVQPGRSLRISCAVSGFTFGSYAMHWVRQAPGKGLEWVGVMSSDGHNEYYADSVKGRFTISRDNSRNKLYLEMNNLRVDDTAVFYCARGSDYVDDSPPLHYWGQGTLVTVSS
VL: DIQLTQSPSSLSASIGDRVTITCRASQDIANKLAWFQQAPGKAPKSLIYAASRLQSGVPSQFSGSGSGTDFTLTIESLQAGDFATYFCQQYDSFPFTFGPGTKVDVK
notes: as for B1
B3: C13C9 mAb (antibody, V domains shown)
VH: EVQLVQSGPEVKKPGTSARVSCKASGFTSKNTALQWVRQARGQPLEWMGWIDISNYITNYAQKFRGRLTITWDLSASMAYMELSSLRSEDTAVYYCAAVGKDDDVLTGGNKYFDHWGQGTLVTVSS
VL: SYELTQPPSVSVSPGQTARITCSGDALPKKYAYWYQQKSGQAPVLVIHEDDKRPSGIPGRFSASSSGTTATLTISGAQVEDEADYYCYSTDTNDNHAFGSGTKLTVL
notes: as for B1
B4: C13B8 mAb (antibody, V domains shown)
VH: QVQLQESGPGLVQPSQTLTLTCTVSGDSISNEDYHWTWIRQHPGKGLEWMGYLQYSGNTNYNPSLKSRMTISVDTSKNQFSLRLNSVTAADTAVYFCATSIVLTGMSNKIQPFDYWGQGTLVTVSS
VL: SYELTQPPSVSVSPGQMARITCSGEALPKKYAYWYQQKGGQFPVLVIYKDTERPSGIPERFSGSSSGTIVTLTISGVQPEDEADYYCLSADTSGTWVFGGGTKLTVL
notes: as for B1
B5: VN01H1 mAb (antibody, V domains shown)
VH: EVQLVESGGGLVLPGGSLRLSCSASGFTFSDFSMHWVRQSPGKGLEYVSAITSSGSSTYYPDSVKGRFTISRDNSKNTLYLQMGSLRVEDTAVYWCVKNSDVFRFPHLYFDVWGRGTLVTVSS
VL: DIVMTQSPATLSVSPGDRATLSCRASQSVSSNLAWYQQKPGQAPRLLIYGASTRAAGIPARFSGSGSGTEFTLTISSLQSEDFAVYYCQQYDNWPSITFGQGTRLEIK
notes: as for B1
B6: VP12E7 Fab (Fab, V domains shown)
VH: B1 VH
VL: B1 VL
B7: C77G12 Fab (Fab, V domains shown)
VH: B2 VH
VL: B2 VL
B8: C13C9 Fab (Fab, V domains shown)
VH: B3 VH
VL: B3 VL
B9: C13B8 Fab (Fab, V domains shown)
VH: B4 VH
VL: B4 VL
B10: VN01H1 Fab (Fab, V domains shown)
VH: B5 VH
VL: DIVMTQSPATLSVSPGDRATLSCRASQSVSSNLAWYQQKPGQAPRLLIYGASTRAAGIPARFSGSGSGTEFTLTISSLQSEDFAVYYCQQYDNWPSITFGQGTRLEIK

Biological target: T1, SARS-CoV-2 S fusion peptide K811[…]825 (SARS-CoV-2)
T1 construct: source: synthetic peptide
T1 chain: KPSKRSFIEDLLFNK
Assay: ELISA
Conditions: both partners purified

| Binder | binding result |
| --- | --- |
| B1 | binds |
| B2 | binds |
| B3 | binds |
| B4 | binds |
| B5 | binds |

biological target: T2, full length SARS-CoV-2 S Wuhan-Hu-1 on HEK293T cells (Severe acute respiratory syndrome …, UniProt P0DTC2); assay: flow cytometry on cells; conditions: one partner purified
T2 construct: source: HEK293T, transiently transfected, on the cell surface

| Binder | binding result |
| --- | --- |
| B1 | binds |
| B2 | binds |
| B3 | binds |
| B4 | binds |
| B5 | binds |

biological target: T3, SARS-CoV S on HEK293T cells (Severe acute respiratory syndrome …, UniProt P59594); assay: flow cytometry on cells; conditions: one partner purified
T3 construct: source: HEK293T, transfected, on the cell surface

| Binder | binding result |
| --- | --- |
| B1 | binds |
| B2 | binds |
| B3 | binds |
| B4 | binds |
| B5 | binds |

biological target: T4, MERS-CoV S on HEK293T cells (MERS-CoV, strain ; entry is …, UniProt K9N5Q8); assay: flow cytometry on cells; conditions: one partner purified
T4 construct: source: HEK293T, transfected, on the cell surface
T4 sequence (K9N5Q8 18-1353): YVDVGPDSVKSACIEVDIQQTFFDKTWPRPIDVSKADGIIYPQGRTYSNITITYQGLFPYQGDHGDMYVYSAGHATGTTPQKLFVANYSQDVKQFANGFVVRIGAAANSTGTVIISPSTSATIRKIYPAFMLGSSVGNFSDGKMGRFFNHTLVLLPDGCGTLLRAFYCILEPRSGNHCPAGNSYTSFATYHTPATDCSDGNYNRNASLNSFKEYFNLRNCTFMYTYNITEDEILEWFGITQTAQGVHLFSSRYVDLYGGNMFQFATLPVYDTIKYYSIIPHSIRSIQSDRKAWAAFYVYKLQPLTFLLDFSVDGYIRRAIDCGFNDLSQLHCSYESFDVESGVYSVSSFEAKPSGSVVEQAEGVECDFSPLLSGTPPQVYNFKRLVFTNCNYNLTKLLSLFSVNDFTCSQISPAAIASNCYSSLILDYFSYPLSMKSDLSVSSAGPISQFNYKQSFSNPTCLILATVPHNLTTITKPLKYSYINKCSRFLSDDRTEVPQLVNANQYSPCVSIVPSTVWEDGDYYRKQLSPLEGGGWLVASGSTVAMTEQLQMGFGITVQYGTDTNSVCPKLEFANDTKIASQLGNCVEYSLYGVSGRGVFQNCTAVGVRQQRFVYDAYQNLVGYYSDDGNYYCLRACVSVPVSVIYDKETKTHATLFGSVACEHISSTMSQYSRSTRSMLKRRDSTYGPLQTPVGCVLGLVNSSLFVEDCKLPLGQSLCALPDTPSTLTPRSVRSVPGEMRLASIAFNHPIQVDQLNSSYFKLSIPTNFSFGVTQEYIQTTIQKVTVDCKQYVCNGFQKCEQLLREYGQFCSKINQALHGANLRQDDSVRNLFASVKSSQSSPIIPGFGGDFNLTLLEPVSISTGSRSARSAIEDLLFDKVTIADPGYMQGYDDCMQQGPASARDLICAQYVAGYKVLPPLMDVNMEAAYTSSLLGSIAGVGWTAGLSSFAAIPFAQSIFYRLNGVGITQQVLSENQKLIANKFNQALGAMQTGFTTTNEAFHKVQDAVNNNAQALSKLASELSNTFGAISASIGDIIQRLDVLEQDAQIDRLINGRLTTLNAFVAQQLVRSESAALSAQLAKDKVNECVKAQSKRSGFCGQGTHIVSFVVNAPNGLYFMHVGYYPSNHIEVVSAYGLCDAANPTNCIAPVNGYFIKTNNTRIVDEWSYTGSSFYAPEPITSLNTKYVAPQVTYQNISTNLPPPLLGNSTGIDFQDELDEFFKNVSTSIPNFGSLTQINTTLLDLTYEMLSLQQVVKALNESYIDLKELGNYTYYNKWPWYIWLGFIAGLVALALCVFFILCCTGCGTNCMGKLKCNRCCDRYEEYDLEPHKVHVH

| Binder | binding result |
| --- | --- |
| B1 | binds |
| B2 | binds |
| B3 | binds |
| B4 | binds |
| B5 | binds |

biological target: NL63 S on HEK293T cells (Human coronavirus NL63, GenBank …, UniProt A0A1L2YVI8); assay: flow cytometry on cells; conditions: one partner purified
Sequence (Q6Q1S2 19-1356): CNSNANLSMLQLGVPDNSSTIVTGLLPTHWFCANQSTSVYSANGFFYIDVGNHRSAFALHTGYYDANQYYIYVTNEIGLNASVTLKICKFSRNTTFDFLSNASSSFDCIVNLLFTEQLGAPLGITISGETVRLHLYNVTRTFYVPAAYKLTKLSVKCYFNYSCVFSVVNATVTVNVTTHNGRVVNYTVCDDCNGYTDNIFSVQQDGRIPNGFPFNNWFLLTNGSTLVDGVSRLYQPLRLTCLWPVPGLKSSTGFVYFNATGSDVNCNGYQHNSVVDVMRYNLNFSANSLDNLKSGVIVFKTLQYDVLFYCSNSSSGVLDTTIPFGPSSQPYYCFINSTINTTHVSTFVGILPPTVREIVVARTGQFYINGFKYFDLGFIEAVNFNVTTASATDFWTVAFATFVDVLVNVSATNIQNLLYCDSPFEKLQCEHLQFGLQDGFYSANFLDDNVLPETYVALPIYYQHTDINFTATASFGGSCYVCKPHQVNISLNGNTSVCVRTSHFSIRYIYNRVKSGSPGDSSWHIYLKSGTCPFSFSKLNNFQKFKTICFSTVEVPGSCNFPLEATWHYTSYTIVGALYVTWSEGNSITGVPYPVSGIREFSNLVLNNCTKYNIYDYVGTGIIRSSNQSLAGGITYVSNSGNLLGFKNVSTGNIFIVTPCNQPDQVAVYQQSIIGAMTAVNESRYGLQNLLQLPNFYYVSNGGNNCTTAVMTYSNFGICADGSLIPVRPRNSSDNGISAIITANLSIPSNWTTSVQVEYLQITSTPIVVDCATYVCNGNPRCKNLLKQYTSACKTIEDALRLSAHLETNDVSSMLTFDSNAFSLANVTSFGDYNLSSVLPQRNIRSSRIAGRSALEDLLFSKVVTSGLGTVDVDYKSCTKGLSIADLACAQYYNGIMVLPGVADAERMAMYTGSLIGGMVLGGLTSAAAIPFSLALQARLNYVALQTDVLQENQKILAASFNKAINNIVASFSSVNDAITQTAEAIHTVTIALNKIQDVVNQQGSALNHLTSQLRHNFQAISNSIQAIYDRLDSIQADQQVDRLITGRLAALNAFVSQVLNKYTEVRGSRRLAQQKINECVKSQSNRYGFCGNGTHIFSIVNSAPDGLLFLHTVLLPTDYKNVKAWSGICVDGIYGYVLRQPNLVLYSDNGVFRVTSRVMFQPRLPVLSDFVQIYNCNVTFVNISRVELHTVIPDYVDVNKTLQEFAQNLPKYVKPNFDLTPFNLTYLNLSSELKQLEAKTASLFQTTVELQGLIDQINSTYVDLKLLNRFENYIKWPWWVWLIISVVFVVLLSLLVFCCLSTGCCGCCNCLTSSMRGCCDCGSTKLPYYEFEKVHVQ

| Binder | binding result |
| --- | --- |
| B1 | binds |
| B2 | binds |
| B3 | binds |
| B4 | binds |
| B5 | binds |

biological target: T5, 229E S on HEK293T cells (Human coronavirus 229E, GenBank …); assay: flow cytometry on cells; conditions: one partner purified
T5 construct: source: HEK293T, transiently transfected, on the cell surface
T5 sequence (P15423 16-1173): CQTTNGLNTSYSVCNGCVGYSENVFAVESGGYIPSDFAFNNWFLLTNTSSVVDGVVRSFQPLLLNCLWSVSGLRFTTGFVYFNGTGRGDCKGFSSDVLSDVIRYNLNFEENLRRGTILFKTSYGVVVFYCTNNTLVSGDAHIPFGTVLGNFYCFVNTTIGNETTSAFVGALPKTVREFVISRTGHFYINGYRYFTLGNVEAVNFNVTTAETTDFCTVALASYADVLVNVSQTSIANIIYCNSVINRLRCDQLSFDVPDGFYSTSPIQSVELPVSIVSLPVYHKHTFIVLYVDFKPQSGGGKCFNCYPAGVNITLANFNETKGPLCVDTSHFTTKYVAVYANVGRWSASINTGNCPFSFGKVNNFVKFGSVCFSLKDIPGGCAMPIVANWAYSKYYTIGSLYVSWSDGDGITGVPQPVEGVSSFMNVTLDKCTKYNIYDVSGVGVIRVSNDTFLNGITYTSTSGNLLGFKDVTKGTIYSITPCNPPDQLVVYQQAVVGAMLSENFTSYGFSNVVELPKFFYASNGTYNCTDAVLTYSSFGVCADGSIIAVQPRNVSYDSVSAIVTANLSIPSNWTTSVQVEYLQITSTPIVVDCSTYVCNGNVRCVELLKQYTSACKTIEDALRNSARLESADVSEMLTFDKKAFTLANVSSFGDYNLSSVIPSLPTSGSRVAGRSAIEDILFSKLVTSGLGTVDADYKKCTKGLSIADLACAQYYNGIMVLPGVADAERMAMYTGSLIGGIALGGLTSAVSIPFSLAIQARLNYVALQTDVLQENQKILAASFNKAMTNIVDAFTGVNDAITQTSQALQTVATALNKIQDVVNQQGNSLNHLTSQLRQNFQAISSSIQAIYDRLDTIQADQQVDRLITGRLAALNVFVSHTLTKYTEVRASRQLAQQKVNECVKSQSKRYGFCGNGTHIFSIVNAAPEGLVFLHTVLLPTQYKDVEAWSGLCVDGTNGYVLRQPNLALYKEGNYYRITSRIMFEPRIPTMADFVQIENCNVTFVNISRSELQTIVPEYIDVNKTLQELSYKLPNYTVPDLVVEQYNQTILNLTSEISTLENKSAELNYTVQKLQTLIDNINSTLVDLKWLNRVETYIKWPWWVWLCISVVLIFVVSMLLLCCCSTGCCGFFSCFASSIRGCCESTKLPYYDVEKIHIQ

| Binder | binding result |
| --- | --- |
| B1 | binds |
| B2 | binds |
| B3 | binds |
| B4 | binds |
| B5 | binds |

Biological target: T1, SARS-CoV-2 S fusion peptide K811[…]825
Assay: crystal structure; Fab in complex with the fusion peptide K811-K825
Conditions: both partners purified

| Binder | binding result |
| --- | --- |
| B6 | binds |
| B7 | binds |
| B8 | binds |
| B9 | binds |
| B10 | binds |

biological target: SARS-CoV-2 S protein (commercially available, recombinant) (SARS-CoV-2 (Wuhan-Hu-1 assumed), UniProt P0DTC2); assay: ELISA; mAbs titrated on commercially available hCoV S proteins; EC50 (Fig. 1E); conditions: both partners purified

| Binder | binding result |
| --- | --- |
| B1 | binds |
| B2 | binds |
| B3 | binds |
| B4 | binds |
| B5 | binds |

biological target: OC43 S protein (commercially available, recombinant) (human coronavirus OC43, strain not …, UniProt P36334); assay: as above; conditions: both partners purified

| Binder | binding result |
| --- | --- |
| B1 | binds |
| B2 | binds |
| B3 | binds |
| B4 | binds |
| B5 | binds |

biological target: HKU1 S protein (commercially available, recombinant) (human coronavirus HKU1, isolate not …, UniProt Q5MQD0); assay: as above; conditions: both partners purified

| Binder | binding result |
| --- | --- |
| B1 | binds |
| B2 | binds |
| B3 | binds |
| B4 | binds |
| B5 | binds |

biological target: NL63 S protein (commercially available, recombinant) (human coronavirus NL63, strain of …, UniProt A0A1L2YVI8); assay: as above; conditions: both partners purified

| Binder | binding result |
| --- | --- |
| B1 | binds |
| B2 | binds |
| B3 | binds |
| B4 | binds |
| B5 | binds |

Biological target: T6, 229E S protein (commercially available, recombinant) (human coronavirus 229E, strain of …)
T6 chain: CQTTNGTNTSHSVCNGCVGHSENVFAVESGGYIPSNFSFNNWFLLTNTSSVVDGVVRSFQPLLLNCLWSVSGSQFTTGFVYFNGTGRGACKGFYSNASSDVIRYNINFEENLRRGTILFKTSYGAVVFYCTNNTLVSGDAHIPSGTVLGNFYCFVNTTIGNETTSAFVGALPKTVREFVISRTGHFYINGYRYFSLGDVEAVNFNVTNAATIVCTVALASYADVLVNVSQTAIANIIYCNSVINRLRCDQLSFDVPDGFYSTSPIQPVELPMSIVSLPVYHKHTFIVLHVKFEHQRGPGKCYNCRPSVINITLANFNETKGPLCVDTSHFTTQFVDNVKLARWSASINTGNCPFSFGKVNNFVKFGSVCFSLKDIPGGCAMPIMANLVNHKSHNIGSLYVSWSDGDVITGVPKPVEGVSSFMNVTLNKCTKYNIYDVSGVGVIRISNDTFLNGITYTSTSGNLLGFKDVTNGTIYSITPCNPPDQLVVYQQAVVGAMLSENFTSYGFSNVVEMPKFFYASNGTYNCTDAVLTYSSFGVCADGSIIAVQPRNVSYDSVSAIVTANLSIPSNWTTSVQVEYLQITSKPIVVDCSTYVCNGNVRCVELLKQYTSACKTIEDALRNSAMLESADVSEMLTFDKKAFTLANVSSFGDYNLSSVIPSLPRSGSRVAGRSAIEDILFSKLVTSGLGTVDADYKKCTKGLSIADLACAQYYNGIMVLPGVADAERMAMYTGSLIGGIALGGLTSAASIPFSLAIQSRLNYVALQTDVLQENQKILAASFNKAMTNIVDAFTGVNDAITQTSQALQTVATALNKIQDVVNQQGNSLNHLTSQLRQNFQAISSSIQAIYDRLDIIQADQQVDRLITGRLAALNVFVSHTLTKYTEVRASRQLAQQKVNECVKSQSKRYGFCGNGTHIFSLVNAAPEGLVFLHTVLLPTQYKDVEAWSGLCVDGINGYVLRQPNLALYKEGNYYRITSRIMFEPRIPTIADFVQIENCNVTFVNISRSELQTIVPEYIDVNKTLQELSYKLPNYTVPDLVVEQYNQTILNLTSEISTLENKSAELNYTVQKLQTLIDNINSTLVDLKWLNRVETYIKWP
Assay: as above
Conditions: both partners purified

| Binder | binding result |
| --- | --- |
| B1 | binds |
| B2 | binds |
| B3 | binds |
| B4 | binds |
| B5 | binds |
